# From article doi:10.1101/2024.12.09.627393 (bioRxiv, 2024)
# Biological target: T1, histone H4K5acK8acK12acK16ac residues 1–23 peptide (dCypher) (UniProt P62805 2-24, acetyl-lysine at 5, 8, 12 and 16)
# T1 construct: histone H4 residues 1-23; also called H4Tetra^ac
# Experiment: AlphaScreen or HTRF; dCypher: GST-CECR2-BRD titrated against histone peptides (100 nM); glutathione Acceptor and streptavidin Donor beads; 50 mM Tris pH 7.5, 50 mM NaCl, 0.01% Tween-20, 0.01% BSA, 1 mM TCEP, 0.0004% Poly-L-Lysine; room temperature; relative EC50 (EC50^rel)
# Conditions: both partners purified
binder,measurement,value
"GST-CECR2-BRD (GST tag retained, for dCypher assays) (domain or fragment, human CECR2 bromodomain, amino acids 424-538 of UniProt Q9BXF3-1, codon optimized for E. coli, in pGEX-6P-1; PreScission Protease site between GST and the bromodomain; source: E. coli BL21(DE3) pLysS, purified (glutathione agarose, eluted with reduced glutathione, dialysed); not shown: GST, N-terminal, kept) not shown",EC50,7.2 nM
